Assay [1] has as its target T1, GST-IBH1 (Arabidopsis thaliana, UniProt Q9SKX1 1-156).
T1 construct: also called glutathione S-transferase (GST)-IBH1; source: bacteria, purified on glutathione beads; not shown: GST, N-terminal, kept
T1 sequence (looked up): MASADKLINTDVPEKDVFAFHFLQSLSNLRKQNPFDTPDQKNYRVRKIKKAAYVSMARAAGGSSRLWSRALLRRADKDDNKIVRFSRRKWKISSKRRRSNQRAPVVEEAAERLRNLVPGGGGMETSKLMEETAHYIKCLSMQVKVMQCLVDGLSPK
The experiment in a line: pull-down; 1 μg GST-IBH1 on glutathione beads with 1 μg MBP fusion; 20 mM Tris-HCl pH 7.5, 100 mM NaCl, 1 mM EDTA; washes with 300 mM NaCl, 0.5% Triton X-100; anti-MBP immunoblot. The settings on record: both partners purified. Background: Immunoblotting shows a protein as a band on a membrane.

In assay [2] the target is T2, GST-BIN2 (BR-… 2, GSK3-like kinase) (Arabidopsis thaliana, UniProt Q39011 1-380).
T2 construct: GST-BIN2 is the only recombinant wild-type BIN2 described (methods 4.11); also called brassinosteroid-insensitive 2; source: E. coli, purified
T2 sequence (looked up): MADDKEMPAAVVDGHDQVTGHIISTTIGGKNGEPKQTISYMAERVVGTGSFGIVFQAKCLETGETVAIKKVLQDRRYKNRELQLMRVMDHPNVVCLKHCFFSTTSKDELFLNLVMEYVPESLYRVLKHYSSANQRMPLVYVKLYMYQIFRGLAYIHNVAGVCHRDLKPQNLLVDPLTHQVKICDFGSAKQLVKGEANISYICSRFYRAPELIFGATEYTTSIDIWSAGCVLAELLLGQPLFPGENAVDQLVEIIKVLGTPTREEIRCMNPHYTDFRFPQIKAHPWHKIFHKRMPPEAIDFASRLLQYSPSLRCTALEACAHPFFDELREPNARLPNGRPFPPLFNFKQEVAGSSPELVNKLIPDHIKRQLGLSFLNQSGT
In words: far-Western, overlay or dot blot; overlay assay in vitro (Figure S5A); format not told. The settings on record: both partners purified.

The record followed here is PMC7729563, “Phospho-Mutant Activity Assays Provide Evidence for the Negative Regulation of Transcriptional Regulator PRE1 by Phosphorylation” (International Journal of Molecular Sciences, 2020).

B1: MBP-PRE1 (natural protein, Arabidopsis thaliana, UniProt Q9FLE9 1-92, looked up)
chain: MSNRRSRQSSSAPRISDNQMIDLVSKLRQILPEIGQRRRSDKASASKVLQETCNYIRNLNREVDNLSERLSQLLESVDEDSPEAAVIRSLLM
notes: MBP-PRE1 is the only recombinant PRE1 described; source: E. coli, purified on amylose resin beads; not shown: MBP, N-terminal, kept
B1: the binding result in assay [1] and in assay [2] was “binds” each time.

B2: MBP-PRE1^S67A (natural protein, Arabidopsis thaliana, UniProt Q9FLE9 1-92, looked up)
chain: MSNRRSRQSSSAPRISDNQMIDLVSKLRQILPEIGQRRRSDKASASKVLQETCNYIRNLNREVDNLAERLSQLLESVDEDSPEAAVIRSLLM
notes: source: E. coli, purified on amylose resin beads; not shown: MBP, N-terminal, kept
Consider B2, for which the binding result in assay [1] is given as “binds”.
